Biological target: recombinant human PKA catalytic subunit Cα2 (human) (UniProt P17612)
Assay: SPR; C subunits amine-coupled to CM5 chip (about 300 RU), R subunits injected at 30 μl/min; 25°C; 20 mM MOPS pH 7, 150 mM NaCl, 1 mM ATP, 5 mM MgCl2, 50 μM EDTA, 0.005% P20; Langmuir 1:1 model; Biacore 2000 or 3000

“recombinant human PKA regulatory subunit RIIβ (from UniProt P31323 1-418) (natural protein; other documents disagree on this pair)” was tested, and the Kd was 0.9 nM and the kon was 900000 M⁻¹ s⁻¹.

Reference: PMC3163529
